This note sets out measurements from article PMC12114895, “Lanthanides-Based Nanoparticles Conjugated with Rose Bengal for FRET-Mediated X-Ray-Induced PDT” (Pharmaceuticals, 2025).

Ends that are not written are not given here. RB = not defined here

One data set is described as follows: Zeta potential. It is filed as physicochemical. Particulars: DLS, Zetasizer Nano-Z, He-Ne 633 nm; pH 7.2 mentioned; listed as AGuIX Ln@Mal-K(RB)DKPPR (Ln = Tb). As for the experimental part:
The zeta potential (ξ) for each NPs was determined using Zetasizer Nano-Z (Malvern, UK) equipped with a He-Ne laser at 633 nm.

The nature of data set [1]: Hydrodynamic size by TDA-ICP-MS. Particulars: Table 4, listed as AGuIX Ln@Mal-K(RB)DKPPR (Ln = Tb). It is filed as physicochemical. As for the experimental part: TDA experiments were conducted using a TDA-ICP-MS hyphenation between a Sciex P/ACE MDQ instrument and a 7700 Agilent ICP-MS. Fused silica capillaries with an inner diameter of 75 µm and outer diameter of 375 µm, and a total length of 64 cm, were coated with hydroxypropylcellulose (HPC) using a solution of 0.05 g mL^−1 in water. Detection was carried out by ICP-MS at m/z = 158 and m/z = 159 for Gd and Tb detection, respectively. Samples were hydrodynamically injected (0.3psi for 3 s), then mobilized using Tris 10 mM and NaCl 125 mM at 0.7 psi. Between runs, the capillary was flushed at 5 psi for 5 min with the mobilization medium. All measurements were performed at least in duplicates.
The detected peak was fitted by a sum of Gaussian distributions using Origin 8.5 software, according to Equation (8).(8) St=∑i=12Ai/σi 2πexp−t−t0^2/2σi2 where t0 is the peak residence time, and […] are the area under the curve and the temporal variance associated with each species i, respectively.
Under these experimental conditions, the molecular diffusion coefficient D is given by(9) D=Rc2t0/24σ^2=2kBT/6πηDh where Rc is the capillary radius, kB is the Boltzmann constant, T is the temperature, η is the viscosity, and Dh is the hydrodynamic diameter of the solute.
Therefore, using Equation (9), the hydrodynamic diameters can be calculated from the temporal variances measured from the fitted Taylorgram.

The nature of a further data set: RB fluorescence lifetime. It is filed as physicochemical. Particulars: D2O, λexc = 470 nm; listed as AGuIX Ln@Mal-K(RB)DKPPR (Ln = Tb). As for the experimental part: The Ln luminescence lifetime is recorded after excitation at 545 nm for Tb and 313 nm for Gd. The fluorescence lifetime of RB is recorded after excitation at 470 nm ( τf470 ). ^1O2 emission spectra are obtained after excitation at 558 nm (maximum absorption wavelength of RB) but also after excitation at 351 nm for Tb and 273 nm for Gd.
(§1) Absorption spectra were recorded on a UV-3600 UV–visible double beam spectrophotometer (Shimadzu, Marne-La-Vallée, France). Fluorescence spectra were recorded on a Fluorolog FL3-222 spectrofluorimeter (Horiba Jobin Yvon, Palaiseau, France) equipped with a 450 W Xenon lamp and thermostated cell compartment (25 °C), a UV–visible photomultiplier R928 (Hamamatsu Photonics, Hamamatsu, Japan) and an InGaAs infrared detector (DSS-16A020L Electro-Optical System Inc, Phoenixville, PA, USA). The excitation beam was diffracted by a double ruled grating SPEX monochromator (1200 grooves/mm blazed at 330 nm). The emission beam was diffracted by a double ruled grating SPEX monochromator (1200 grooves/mm blazed at 500 nm). Singlet oxygen emission was detected through a double ruled grating SPEX monochromator (600 grooves/mm blazed at 1 µm) and a long-wave pass (780 nm). All spectra were measured in four-face quartz vials.

A short description of another data set: Ln luminescence lifetime. The format is physicochemical. Particulars: D2O, λexc/λdetection = 351/545 nm.
A short description of data set [2]: Singlet oxygen production quantum yield. It is filed as physicochemical. Particulars: D2O, reference Eosin Y.
A short description of data set [3]: Fluorescence quantum yield. Particulars: D2O, λexc = 558 nm; reference tetraphenylporphyrin. The format is physicochemical. The procedure: as §1
The fluorescence quantum yield (Φf) is calculated using Equation (6).(6) Φf=Φf0 . If/If0.OD0/OD. (n/n0)^2 where Φf and Φf0, If and If0, OD and OD0, n and n0 are the quantum yields, fluorescence intensities, optical densities, and refractive indices of the sample and reference, respectively.
Tetraphenylporphyrin (TPP) was chosen as the fluorescence reference standard (Φf0 = 0.11, toluene).

A further data set concerns U-251 MG cells. The experiment in a line: Anchorage-dependent clonogenic assay with X-ray irradiation. Particulars: [RB] = 1 µM, 24 h, clones after 7 days. It is filed as cell-based, human.
The target of a further data set is NRP-1 (Homo sapiens, UniProt O14786). As to the kind of experiment: NRP-1 binding, competitive assay. Particulars: printed in the figure, read-out: IC50 ± SD (NRP-1, Figure 12). The procedure: The affinity of AGuIX Ln@Mal-K(RB) and AGuIX Ln@Mal-K(RB)DKPPR to NRP-1 was determined as previously described in terms of IC50 in another study.

One may read the IC50 as the concentration that inhibits the measured activity by half.

Sequence of NRP-1 (O14786 22-923): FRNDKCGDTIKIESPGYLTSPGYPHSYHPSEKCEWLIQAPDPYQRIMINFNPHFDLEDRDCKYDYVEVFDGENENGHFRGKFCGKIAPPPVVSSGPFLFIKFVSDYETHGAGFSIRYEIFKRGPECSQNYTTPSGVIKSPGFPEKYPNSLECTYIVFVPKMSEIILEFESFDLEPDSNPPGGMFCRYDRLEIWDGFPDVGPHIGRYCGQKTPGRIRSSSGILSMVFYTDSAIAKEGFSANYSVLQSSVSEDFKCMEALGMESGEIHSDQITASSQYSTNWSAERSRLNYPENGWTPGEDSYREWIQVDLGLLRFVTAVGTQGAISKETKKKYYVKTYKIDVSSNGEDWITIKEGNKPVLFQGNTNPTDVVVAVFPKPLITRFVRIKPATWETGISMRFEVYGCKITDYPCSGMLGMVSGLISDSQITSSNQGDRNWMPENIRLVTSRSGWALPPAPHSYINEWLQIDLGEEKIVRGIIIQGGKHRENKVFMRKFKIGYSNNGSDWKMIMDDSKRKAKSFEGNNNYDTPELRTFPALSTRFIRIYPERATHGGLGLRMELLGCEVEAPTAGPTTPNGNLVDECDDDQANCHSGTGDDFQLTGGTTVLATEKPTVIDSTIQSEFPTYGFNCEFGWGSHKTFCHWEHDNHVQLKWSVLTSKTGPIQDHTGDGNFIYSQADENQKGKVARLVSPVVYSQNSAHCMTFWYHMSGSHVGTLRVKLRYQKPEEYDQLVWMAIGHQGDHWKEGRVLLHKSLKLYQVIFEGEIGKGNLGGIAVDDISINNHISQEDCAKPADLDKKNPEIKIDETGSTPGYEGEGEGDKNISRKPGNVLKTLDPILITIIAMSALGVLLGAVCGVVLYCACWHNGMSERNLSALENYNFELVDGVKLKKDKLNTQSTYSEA

On to “Mal-K(RB)DKPPR [AGuIX Tb@Mal-K(RB)DKPPR, Mal-K(RB)DKPPR conjugated to thiolated AGuIX Tb NPs by thiol-maleimide click chemistry]”, for which the “Zeta potential (ζ)” value in “Zeta potential” was −14 mV. In addition, in data set [1], the “percentage of population P1” value is recorded as 46% and the “percentage of population P2” value is listed as 54%. For the same substance, in data set [1] (Tris 10 mM and NaCl 125 mM), the “Size, population P1” value is recorded as 5.4 nm and the “Size, population P2” value is recorded as 32.0 nm. For the same substance, in “RB fluorescence lifetime”, the “RB fluorescence lifetime τf470” value was determined as 2.8 ns. Further, the “Ln luminescence lifetime τL (Tb)” value in “Ln luminescence lifetime” was 345 µs. Besides, the “^1O2 quantum yield ΦΔ351(Tb)” value in data set [2] (λexc = 351 nm) is reported as 0.36. Further, the “^1O2 quantum yield ΦΔ558” value in data set [2] (λexc = 558 nm, listed as AGuIX Ln@Mal-K(RB)DKPPR (Ln = Tb)) turned out to be 0.68. In addition, in data set [3], the “Fluorescence quantum yield Φf558” value was 0.11. Moreover, the “Cell survival (clonogenic capability relative to control)” value in the data set on U-251 MG cells (X-ray 2 Gy (320 kV, 10 mA, 3 Gy/min), fraction of untreated non-irradiated cells, mean, triplicates from 3 experiments (n = 9)) was found to be 0.43. In the data set on U-251 MG cells (X-ray 2 Gy, p = 0.02), the “decrease of cell growth (clones)” value is on record as 57%.
Turning to “Mal-K(RB)DKPPR [AGuIX Tb@Mal-K(RB)DKPPR] (not fully specified (N-terminus); printed as AGuIX Tb@Mal-K(RB)DKPPR; reading uncertain) [Mal-K(RB)DKPPR conjugated to thiolated AGuIX Tb NPs by thiol-maleimide click chemistry]”, the IC50 with NRP-1 is 6 ± 1.3 nM.
